IntAct's records for PubMed 24793651

B1: Autophagy-related protein 13 (Saccharomyces cerevisiae), Q06628 (parent)
chain: MVAEEDIEKQVLQLIDSFFLKTTLLICSTESSRYQSSTENIFLFDDTWFEDHSELVSELPEIISKWSHYDGRKELPPLVVETYLDLRQLNSSHLVRLKDHEGHLWNVCKGTKKQEIVMERWLIELDNSSPTFKSYSEDETDVNELSKQLVLLFRYLLTLIQLLPTTELYQLLIKSYNGPQNEGSSNPITSTGPLVSIRTCVLDGSKPILSKGRIGLSKPIINTYSNALNESNLPAHLDQKKITPVWTKFGLLRVSVSYRRDWKFEINNTNDELFSARHASVSHNSQGPQNQPEQEGQSDQDIGKRQPQFQQQQQPQQQQQQQQQQQRQHQVQTQQQRQIPDRRSLSLSPCTRANSFEPQSWQKKVYPISRPVQPFKVGSIGSQSASRNPSNSSFFNQPPVHRPSMSSNYGPQMNIEGTSVGSTSKYSSSFGNIRRHSSVKTTENAEKVSKAVKSPLQPQESQEDLMDFVKLLEEKPDLTIKKTSGNNPPNINISDSLIRYQNLKPSNDLLSEDLSVSLSMDPNHTYHRGRSDSHSPLPSISPSMHYGSLNSRMSQGANASHLIARGGGNSSTSALNSRRNSLDKSSNKQGMSGLPPIFGGESTSYHHDNKIQKYNQLGVEEDDDDENDRLLNQMGNSATKFKSSISPRSIDSISSSFIKSRIPIRQPYHYSQPTTAPFQAQAKFHKPANKLIDNGNRSNSNNNNHNGNDAVGVMHNDEDDQDDDLVFFMSDMNLSKEG
partner: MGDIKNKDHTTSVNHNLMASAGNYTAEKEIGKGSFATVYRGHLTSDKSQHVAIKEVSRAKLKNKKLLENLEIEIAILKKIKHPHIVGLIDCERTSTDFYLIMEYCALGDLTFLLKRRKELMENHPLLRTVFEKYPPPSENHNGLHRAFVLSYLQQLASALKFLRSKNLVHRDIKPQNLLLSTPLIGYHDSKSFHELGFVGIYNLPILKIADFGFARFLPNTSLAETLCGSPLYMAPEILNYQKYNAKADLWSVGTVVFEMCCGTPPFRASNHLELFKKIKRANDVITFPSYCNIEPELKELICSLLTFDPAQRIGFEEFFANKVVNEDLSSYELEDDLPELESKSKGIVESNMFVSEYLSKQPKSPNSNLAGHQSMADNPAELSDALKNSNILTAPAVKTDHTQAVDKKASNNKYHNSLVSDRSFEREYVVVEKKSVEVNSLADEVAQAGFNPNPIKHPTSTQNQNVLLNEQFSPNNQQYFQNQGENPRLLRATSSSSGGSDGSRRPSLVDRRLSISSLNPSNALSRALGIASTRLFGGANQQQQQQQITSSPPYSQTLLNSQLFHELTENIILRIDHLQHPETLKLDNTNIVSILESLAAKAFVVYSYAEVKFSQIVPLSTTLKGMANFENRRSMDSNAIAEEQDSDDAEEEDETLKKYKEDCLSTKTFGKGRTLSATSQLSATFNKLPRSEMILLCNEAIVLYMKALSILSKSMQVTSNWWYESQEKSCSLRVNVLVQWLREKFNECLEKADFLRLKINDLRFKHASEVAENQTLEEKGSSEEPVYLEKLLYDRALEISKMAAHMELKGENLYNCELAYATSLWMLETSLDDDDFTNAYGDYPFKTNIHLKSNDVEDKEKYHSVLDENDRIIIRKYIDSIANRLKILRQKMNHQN
B2: Autophagy-related protein 17 (Saccharomyces cerevisiae), Q06410 (parent)
chain: MNEADVTKFVNNARKTLTDAQLLCSSANLRIVDIKKKLSSWQLSISKLNFLIVGLRQQGKFLYTILKEGIGTKLIQKQWNQAVLVVLVDEMKYWQYEITSKVQRLDGIVNELSISEKDDTDPSKLGDYISRDNVNLLNDKLKEVPVIERQIENIKLQYENMVRKVNKELIDTKLTDVTQKFQSKFGIDNLMETNVAEQFSRELTDLEKDLAEIMNSLTQHFDKTLLLQDKKIDNDEREELFKVVQGDDKELYNIFKTLHEVIDDVDKTILNLGQFLQAKIKEKTELHSEVSEIINDFNRNLEYLLIFKDISNLIDSFKNSCTQDIQTTKELCEFYDNFEESYGNLVLEAKRRKDVANRMKTILKDCEKQLQNLDAQDQEERQNFIAENGTYLPETIWPGKIDDFSSLYTLNYNVKNP
partner: B1 chain
B3: Autophagy-related protein 13 (Saccharomyces cerevisiae), Q06628 (parent)
chain: B1 chain
partner: B2 chain

Variants of: B1
Conditions: with atg1_yeast ATG1, P53104

| Variant | effect of a mutation on the interaction |
| --- | --- |
| L472A | disrupting interaction strength |
| F468A | disrupting interaction strength |

Variants of: B1
Conditions: with atg1_yeast ATG1, P53104
Remark: another data set of the same source

| Variant | effect of a mutation on the interaction |
| --- | --- |
| F468A;L472A | disrupting interaction strength |

Variants of: B1
Conditions: with atg1_yeast ATG1, P53104
Remark: another data set of the same source

| Variant | effect of a mutation on the interaction |
| --- | --- |
| F468A | decreasing interaction strength |

Variants of: B2
Conditions: with atg13_yeast ATG13, Q06628

| Variant | effect of a mutation on the interaction |
| --- | --- |
| MNEADVTKFVNNARKTLTDAQLLCSSANLRIVDIKKKLSSWQLSISKLNFLIVGLRQQGKFLYTILKEGIGTKLIQKQWNQAVLVVLVDEMKYWQYEITSKVQRLDGIVNELSISEKDDTDPSKLGDYISRDNVNLLNDKLKEVPVIERQIENIKLQYENMVRKVNKELIDTKLTDVTQKFQSKFGIDNLMETNVAEQFSRELTDLEKDLAEIMNSLTQHFDKTLLLQDKKIDNDEREELFKVVQGADKALYNIFKTLHEVIDDVDKTILNLGQFLQAKIKEKTELHSEVSEIINDFNRNLEYLLIFKDISNLIDSFKNSCTQDIQTTKELCEFYDNFEESYGNLVLEAKRRKDVANRMKTILKDCEKQLQNLDAQDQEERQNFIAENGTYLPETIWPGKIDDFSSLYTLNYNVKNP [D247A;E250A] | disrupting interaction strength |
| MNEADVTKFVNNARKTLTDAQLLCSSANLRIVDIKKKLSSWQLSISKLNFLIVGLRQQGKFLYTILKEGIGTKLIQKQWNQAVLVVLVDEMKYWQYEITSKVQRLDGIVNELSISEKDDTDPSKLGDYISRDNVNLLNDKLKEVPVIERQIENIKLQYENMVRKVNKELIDTKLTDVTQKFQSKFGIDNLMETNVAEQFSRELTDLEKDLAEAMNALTQHFDKTLLLQDKKIDNDEREELFKVVQGDDKELYNIFKTLHEVIDDVDKTILNLGQFLQAKIKEKTELHSEVSEIINDFNRNLEYLLIFKDISNLIDSFKNSCTQDIQTTKELCEFYDNFEESYGNLVLEAKRRKDVANRMKTILKDCEKQLQNLDAQDQEERQNFIAENGTYLPETIWPGKIDDFSSLYTLNYNVKNP [I213A;S216A] | decreasing interaction strength |
| MNEADVTKFVNNARKTLTDAQLLCSSANLRIVDIKKKLSSWQLSISKLNFLIVGLRQQGKFLYTILKEGIGTKLIQKQWNQAVLVVLVDEMKYWQYEITSKVQRLDGIVNELSISEKDDTDPSKLGDYISRDNVNLLNDKLKEVPVIERQIENIKLQYENMVRKVNKELIDTKLTDVTQKFQSKFGIDNLMETNVAEQFSRELTDLEKDLAEIMNSLTQHFDKTLLLQDKKIDNDEREEAFKAVQGDDKELYNIFKTLHEVIDDVDKTILNLGQFLQAKIKEKTELHSEVSEIINDFNRNLEYLLIFKDISNLIDSFKNSCTQDIQTTKELCEFYDNFEESYGNLVLEAKRRKDVANRMKTILKDCEKQLQNLDAQDQEERQNFIAENGTYLPETIWPGKIDDFSSLYTLNYNVKNP [L240A;V243A] | decreasing interaction strength |
| MNEADVTKFVNNARKTLTDAQLLCSSANLRIVDIKKKLSSWQLSISKLNFLIVGLRQQGKFLYTILKEGIGTKLIQKQWNQAVLVVLVDEMKYWQYEITSKVQRLDGIVNELSISEKDDTDPSKLGDYISRDNVNLLNDKLKEVPVIERQIENIKLQYENMVRKVNKELIDTKLTDVTQKFQSKFGIDNLMETNVAEQFSRELTDLEKDLAEIMNSLTQHFDKTLLLQDKKIDNDEREELFKVVQGADKELYNIFKTLHEVIDDVDKTILNLGQFLQAKIKEKTELHSEVSEIINDFNRNLEYLLIFKDISNLIDSFKNSCTQDIQTTKELCEFYDNFEESYGNLVLEAKRRKDVANRMKTILKDCEKQLQNLDAQDQEERQNFIAENGTYLPETIWPGKIDDFSSLYTLNYNVKNP [D247A] | disrupting interaction strength |

Variants of: B3
Conditions: with atg17_yeast ATG17, Q06410

| Variant | effect of a mutation on the interaction |
| --- | --- |
| S429D | disrupting interaction strength |

Variants of: B3
Conditions: with atg17_yeast ATG17, Q06410
Remark: another data set of the same source

| Variant | effect of a mutation on the interaction |
| --- | --- |
| R434A;R435A | disrupting interaction strength |
| F430A;I433A | disrupting interaction strength |
| S428A;S429A | disrupting interaction strength |
